Data published in the supplement of paper PMC12042874.
± gives the uncertainty stated by the source.

Assay: amyloid nucleation score (Sup35N fusion, yeast selection) (log enrichment); library NNK2; higher = more nucleation; inactive = no reads after selection
Summary of the method: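 After 24 hours of induction with 100 μM copper sulfate, psi-negative yeast expressing peptides of 20 random codons fused to Sup35N were grown for 7 days at 30°C on medium lacking adenine and uracil. Input and output plasmid inserts were sequenced with Illumina, and sequences with under 100 input reads were discarded. Scores for nucleation are the DiMSum log enrichment of output over input reads, centred on the mode score of non-aggregating sequences.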

Substance | amyloid nucleation score
QFRPLDCCLLNFDDSRIYCL | 4.88 ± 0.074
RSTTM | inactive
GSLARSTD | 1.25 ± 0.15
NFKECNLDCKSHLRNVWLRQ | inactive
IMSFKFENC | 1.78 ± 0.26
RKPRFIACMTSPCLALC | 0.066 ± 0.5
RRIFYHEYHMRDSIH | 1.7 ± 0.1
ASGCLASEDKMGVYLWVV | 0.171 ± 0.65
PSLMNEVRMGVQCLLFST | 0.108 ± 0.23
SIILLDYCPRRNSSTIALRH | -0.118 ± 0.43
RAQFIQLGDEYYTRC | 0.564 ± 0.49
QNLASIDLDYFFSEYYPLLA | -1.37 ± 0.42
CLWVRGSCC | -1.04 ± 0.55
ALNLIV | -0.572 ± 0.32
NPYIINLFCYKIVRLGAIFT | 4.14 ± 0.068
YGQIITSEKNRRNYMCPFSG | -0.393 ± 1.1
FDGRETQENGNSYMCEGW | 0.419 ± 0.5
VNVYLFYYYPHSSHCYIF | 7.658 ± 0.056
CLNRNGKEVTWVGLIC | 2.46 ± 0.069
CVYPGEMLWRI | -0.609 ± 0.76
TLFNMLDYSVVWYLFTSIHR | -1.44 ± 1.1
FVANSRLLALRLVIGTMLAG | 0.214 ± 0.77
IKVSFRRTGGLLHLCKWLTC | -0.5 ± 0.33
IGSVDDLNLKRICNDLDTP | 0.182 ± 0.79
HMAVNTTALAKNLITG | -0.401 ± 0.55
NRVLSFPRWGAIYVYTMTEF | -0.892 ± 1.1

Substance | amyloid nucleation score
ICSPFVFGFCGTNFRRVLHR | 6.978 ± 0.033
SKIVCDMFLGHEDLPCTRLF | 0.057 ± 1.1
LASYLRFSISSVIFNTRAIL | -0.315 ± 0.54
FLVNVFM | 8.001 ± 0.025
IESRVWVGWSDD | -0.044 ± 0.49
WRKRYEYTVRVGRSAKSTLM | 0.455 ± 0.37
RASVFF | inactive
HIDVLMGCWMRIVTWSR | 2.17 ± 0.29
SPIPFPYMYVYSMWCDTLTR | 0.505 ± 0.3
KSEKTHRIAMLNMSLVSYMR | 3.97 ± 0.053
LITINLSV | 8.427 ± 0.049
QNRKERYVYIFRAEWFPWCG | -1.13 ± 0.76
CNSRCEDWPWIERTPG | 0.571 ± 0.47
RLKWKLEQNSSLLWGRYRTA | 1.24 ± 0.14
HCVMLHGGSPRHLNRRTDIC | 0.292 ± 0.27
ALNGFVYALLAGPGQRLIKP | 1.36 ± 0.53
DKDCVGIVLLFGQCVSITLA | inactive
GSRYN | 0.634 ± 0.54
HYSMHVNGDTAAGTYAQAFC | -0.472 ± 0.76
GLNLSREYYNLFEVEVHADT | -0.178 ± 0.55
VRTIF | inactive
KRNRQMSFRMVSLTRNTSPH | 0.792 ± 0.53
CVVRFRGPYKFCWPQDRSYS | 0.247 ± 0.8
RLSCDTVFMMSFGIICSFFN | 4.418 ± 0.039
LVYRGLESQPAMRMWHTSST | -0.207 ± 0.63
PLFTINRVVMPNINVETFAG | -0.522 ± 0.39

Substance | amyloid nucleation score
RFVYMDIRDMAGWTPLYVYP | -1.23 ± 1
LNSTGAQQFRTVEVYTSMQW | 2.81 ± 0.11
LVNACFCACLRNNSFKCDYY | 6.966 ± 0.066
HTSSLF | -0.156 ± 0.3
HEPGFHYYCY | 2.43 ± 0.1
RVKLACTRLCWLSADFDGNL | 4.04 ± 0.079
EKGVGL | -0.449 ± 0.5
MFLRRCSSRVDSKNGHSSKD | 0.107 ± 0.39
HVCCLKLVRCAGGGFVVKHV | 0.779 ± 0.18
TSYKVVLVTYRT | 5.81 ± 0.074
RLMTVI | -0.229 ± 0.28
IGVQVFPRMHVG | 3.06 ± 0.15
FNRKTKWAYFWLVHGRNR | 5.213 ± 0.052
LSGRHY | 0.33 ± 0.74
WCFFRVAFNW | 1.88 ± 0.17
NGFHCG | inactive
SYGFQVLDAKDVLMLAFVWA | 0.255 ± 1.1
TIFIGVRVPS | -0.224 ± 0.63
VHTAFRETLYRRDKMLCGMR | -0.709 ± 0.63
AGSNDEKNRWVTSL | -0.22 ± 1
SSRSTCNINSYELSVSVQLR | 5.35 ± 0.075
FIEHT | -0.716 ± 0.45
ILYKYETLMLFLSSEYNVIC | 3.9 ± 0.039
ARRVQRKSIPTFVSSAMMSD | -0.25 ± 0.36
SHTWKQMRYYLDNWSLY | -0.288 ± 1
GAYNNFIMCKSFVFSFQSGD | 6.33 ± 0.063

Substance | amyloid nucleation score
SMDRIQEGLHRQLVFDVSE | 0.624 ± 0.35
MQLNNG | 0.075 ± 0.21
SITFFKNAFVAIHIAR | inactive
GSYSWSELSCMLFLFVGVSR | 0.411 ± 0.53
PNVAIYIPTGYGLTVTPPAS | -1.02 ± 0.76
DYVMYPGLVAMLSVSTPSQE | 0.477 ± 0.49
LLGQLKFLFLDVFLWLYVCS | 1.56 ± 0.22
CIFYFMILFSGDIKCLNKPL | inactive
FRRLNTATRRCVTSG | -1.13 ± 0.55
CFIRHISGK | -0.315 ± 0.63
SYSVQAALVCVFGGCNHVGS | 9.383 ± 0.048
WTPTVFVDMHPSNGLVDILY | -0.896 ± 0.61
MWLGLTRRMVITSCYN | 0.461 ± 0.36
PSWDDFSSPEVS | -0.524 ± 0.39
QSMMSFMSRNVFRFFMGKVT | inactive
YYVVLGSSM | -0.018 ± 0.42
VWQQS | 0.668 ± 0.49
SWNELSRFLVILLFQLSRDR | -0.795 ± 0.43
LPFFKIMVRSSYCCNYQG | 2.29 ± 0.065
FYRTSRASAGLS | -0.237 ± 0.79
NTTSARSERR | -0.212 ± 0.37
CNSCSP | 0.811 ± 0.67
SRSSTCGSRGLTGNRGGGIG | 0.299 ± 0.45
YLTNNLVLWFDICDEERYWW | 5.45 ± 0.059
AGKSTHLFLRAVVLLCGNPR | 0.05 ± 0.35
NFADWTCFDIQVR | -0.186 ± 0.32

Substance | amyloid nucleation score
QVRELVVLNSMGYPSSW | -0.188 ± 0.41
FKILCFSHGNNRM | 2.07 ± 0.19
CIRTDFGA | -0.086 ± 0.35
SYFSCCLFFRAFSTFFGVIP | 3.33 ± 0.11
QEYLLLVAAGKHVNVDKTYL | 0.594 ± 0.81
YYGRSSLRNRMDVSDVQYPG | -0.67 ± 1.1
SYYEFVVNLGKPAISVDSIT | 0.349 ± 0.51
TCICEVHTPTSSMISPSMSF | -1.51 ± 0.75
NIQTWGSGHVSTSDG | 3.24 ± 0.089
VSYSGNRYWCSFVNKKAGGN | 1.32 ± 0.27
GLAMFKYIMAIVRNF | -0.855 ± 0.37
DIGRLTLHGRVSADG | 0.748 ± 0.25
YWTPISFVY | -1.09 ± 0.64
TTQDATLIVNSCNTFTLQVY | -0.389 ± 0.29
WVVRK | -1.76 ± 0.44
FICYNTRRVVCIYLRL | 0.456 ± 0.74
RLLAGIFLEEKFYPRPSDIL | 3.69 ± 0.13
DFPQCKNTETLL | 0.279 ± 0.4
RADALIVTVARFTPPALVKV | 1.15 ± 0.68
HKLFHLDSVQVYKQYGKEAI | 1.16 ± 0.18
LRRSTKSSCGVRCWVIEMGS | 0.138 ± 1.1
IFVALEIGVVNVDQVAKDVC | 6.75 ± 0.069
ISPNALEAQMPTQCNYEDGE | 0.451 ± 0.48
LVDFNVLYNAGIIRLHTERY | 8.048 ± 0.07
PQWEKRFKYTNEWAATFNGL | inactive
